Laboratory results published in the Immune Epitope Database (IEDB).

How the values were obtained:
[1] = molecular target: HLA-A*11:01; experiment: IEDB peptide-MHC binding, purified MHC/competitive/fluorescence; ≥ and ≤ were set here for values at or beyond the usual limits of such assays
[2] = molecular target: HLA-A*02:01; experiment: IEDB peptide-MHC binding, purified MHC/direct/fluorescence; filed as Kd, often an IC50 or EC50 that approximates it; ≥ and ≤ were set here for values at or beyond the usual limits of such assays
[3] = molecular target: HLA-A*02:12; experiment: as above
[4] = molecular target: HLA-A*02:16; experiment: as above
[5] = molecular target: HLA-A*02:19; experiment: as above
[6] = molecular target: HLA-A*03:01; experiment: as above
[7] = molecular target: HLA-A*24:03; experiment: as above
[8] = molecular target: HLA-A*29:02; experiment: as above
[9] = molecular target: HLA-A*68:02; experiment: as above
[10] = molecular target: HLA-A*26:01; experiment: IEDB peptide-MHC binding, purified MHC/competitive/fluorescence; filed as Kd, often an IC50 or EC50 that approximates it; ≥ and ≤ were set here for values at or beyond the usual limits of such assays
[11] = molecular target: HLA-A*69:01; experiment: as above
[12] = molecular target: HLA-B*15:01; experiment: as above
[13] = molecular target: HLA-B*18:01; experiment: as above
[14] = molecular target: HLA-B*27:03; experiment: as above
[15] = molecular target: HLA-B*39:01; experiment: as above
[16] = molecular target: HLA-B*46:01; experiment: as above
[17] = molecular target: HLA-B*51:01; experiment: as above
[18] = molecular target: HLA-B*57:01; experiment: as above
[19] = molecular target: HLA-A*11:01; experiment: IEDB peptide-MHC binding, purified MHC/direct/fluorescence; filed as Kd, often an IC50 or EC50 that approximates it; ≥ and ≤ were set here for values at or beyond the usual limits of such assays
[20] = molecular target: HLA-A*31:01; experiment: IEDB peptide-MHC binding, purified MHC/competitive/fluorescence; filed as Kd, often an IC50 or EC50 that approximates it; ≥ and ≤ were set here for values at or beyond the usual limits of such assays
[21] = molecular target: HLA-A*01:01; experiment: IEDB peptide-MHC binding, purified MHC/direct/fluorescence; filed as Kd, often an IC50 or EC50 that approximates it; ≥ and ≤ were set here for values at or beyond the usual limits of such assays; details: source organism: Giardia intestinalis
[22] = molecular target: HLA-A*26:01; experiment: as above; details: source organism: Giardia lamblia ATCC 50803
[23] = molecular target: HLA-A*31:01; experiment: as above; details: source organism: Giardia intestinalis
[24] = molecular target: HLA-A*69:01; experiment: as above; details: source organism: Giardia intestinalis
[25] = molecular target: HLA-B*07:02; experiment: as above; details: source organism: Giardia intestinalis
[26] = molecular target: HLA-B*18:01; experiment: as above; details: source organism: Giardia intestinalis
[27] = molecular target: HLA-B*27:05; experiment: as above; details: source organism: Giardia intestinalis
[28] = molecular target: HLA-B*40:01; experiment: as above
[29] = molecular target: HLA-B*48:01; experiment: as above; details: source organism: Giardia intestinalis
[30] = molecular target: HLA-B*57:01; experiment: as above; details: source organism: Giardia intestinalis
[31] = molecular target: HLA-B*58:01; experiment: as above; details: source organism: Giardia intestinalis
[32] = molecular target: HLA-A*02:03; experiment: IEDB peptide-MHC binding, purified MHC/competitive/fluorescence; filed as Kd, often an IC50 or EC50 that approximates it; ≥ and ≤ were set here for values at or beyond the usual limits of such assays; details: source organism: Giardia intestinalis
[33] = molecular target: HLA-A*02:03; experiment: IEDB peptide-MHC binding, purified MHC/direct/fluorescence; filed as Kd, often an IC50 or EC50 that approximates it; ≥ and ≤ were set here for values at or beyond the usual limits of such assays
[34] = molecular target: HLA-A*02:11; experiment: as above
[35] = molecular target: HLA-A*02:01; experiment: IEDB peptide-MHC binding, purified MHC/competitive/fluorescence; filed as Kd, often an IC50 or EC50 that approximates it; ≥ and ≤ were set here for values at or beyond the usual limits of such assays
[36] = molecular target: HLA-B*15:17; experiment: as above
[37] = molecular target: HLA-B*15:42; experiment: as above; details: source organism: Mycobacterium tuberculosis C
[38] = molecular target: HLA-B*45:06; experiment: as above; details: source organism: Mycobacterium tuberculosis C
[39] = molecular target: HLA-B*83:01; experiment: as above; details: source organism: Mycobacterium tuberculosis C
[40] = molecular target: HLA-A*02:01; experiment: IEDB peptide-MHC binding, purified MHC/competitive/fluorescence; ≥ and ≤ were set here for values at or beyond the usual limits of such assays; details: source organism: Zaire ebolavirus
[41] = molecular target: HLA-A*24:02; experiment: as above; details: source organism: Zaire ebolavirus
[42] = molecular target: HLA-B*15:01; experiment: as above; details: source organism: Zaire ebolavirus
[43] = source organism: Salmonella enterica subsp. enterica serovar Typhimurium str. LT2
[44] = source organism: Bacillus anthracis
[45] = source organism: Yersinia pestis Antiqua
[46] = source organism: Giardia intestinalis
[47] = source organism: Four Corners hantavirus
[48] = source organism: Entamoeba histolytica HM-1:IMSS
[49] = source organism: Entamoeba dispar SAW760

AAGIAWIPY
29.6 µM: IC50 ([1]; source organism: Sudan ebolavirus)

FTGEYLLRL
0.229 µM: Kd ([2]; source organism: Salmonella enterica subsp. enterica serovar Typhimurium)
≥ 20 µM: Kd [4, 43] | Kd [5, 43] | Kd [6, 43] | Kd [7, 43] | Kd [8, 43] | Kd [9, 43] | Kd ([10]; source organism: Homo sapiens) | Kd ([11]; source organism: Homo sapiens) | Kd ([12]; source organism: Homo sapiens) | Kd ([13]; source organism: Homo sapiens) | Kd ([14]; source organism: Homo sapiens) | Kd ([15]; source organism: Homo sapiens) | Kd ([16]; source organism: Homo sapiens) | Kd ([17]; source organism: Homo sapiens) | Kd ([18]; source organism: Homo sapiens)
1.04 µM: Kd [3, 43]

GTLTKGVFK
0.0549 µM: Kd [6, 44]
0.0154 µM: Kd ([20]; source organism: Bacillus anthracis str. A0488)
0.012 µM: Kd [19, 44]

KVCRSPAQK
0.115 µM: Kd [19, 45]
1.81 µM: Kd [6, 45]
1.64 µM: Kd ([20]; source organism: Yersinia pestis Nepal516)

LEKWNLGII
4.37 µM: Kd [32]
1.14 µM: Kd [26]
≥ 20 µM: Kd [21] | Kd [2, 46] | Kd [19, 46] | Kd [22] | Kd [23] | Kd [9, 46] | Kd [24] | Kd [25] | Kd [27] | Kd [29] | Kd [30] | Kd [31]
0.599 µM: Kd [28, 46]

PELGAFFAI
0.107 µM: Kd ([28]; source organism: Itapua hantavirus)
≥ 20 µM: Kd ([33]; source organism: Choclo virus) | Kd ([34]; source organism: Choclo virus) | Kd ([3]; source organism: Choclo virus) | Kd ([4]; source organism: Choclo virus) | Kd ([5]; source organism: Choclo virus) | Kd ([6]; source organism: Choclo virus) | Kd ([7]; source organism: Choclo virus) | Kd ([8]; source organism: Choclo virus) | Kd ([9]; source organism: Choclo virus) | Kd [35, 47] | Kd [10, 47] | Kd [11, 47] | Kd [12, 47] | Kd [36, 47] | Kd [13, 47] | Kd [14, 47] | Kd [15, 47] | Kd [16, 47] | Kd [17, 47] | Kd [18, 47]

RTHLGFIFQ
≥ 20 µM: Kd [6, 44] | Kd [19, 44] | Kd ([20]; source organism: Bacillus thuringiensis str. Al Hakam)

SARRRHLVF
≥ 5 µM: Kd [37] | Kd [38] | Kd [39]

STYQFSLMQ
≥ 20 µM: Kd [33, 48] | Kd [34, 48] | Kd [3, 48] | Kd [5, 48] | Kd [6, 48] | Kd [19, 48] | Kd [9, 48] | Kd [35, 49] | Kd [10, 49] | Kd [11, 49] | Kd [36, 49] | Kd [13, 49] | Kd [14, 49] | Kd [15, 49] | Kd [16, 49] | Kd [17, 49] | Kd [18, 49]

VSAAGTTLR
≥ 20 µM: Kd ([6]; source organism: Mycobacterium tuberculosis)
0.35 µM: Kd ([20]; source organism: Mycobacterium tuberculosis H37Rv)

YQGDYKLFL
0.902 µM: IC50 [41]
10.8 µM: IC50 [42]
0.601 µM: IC50 [40]
60 µM: IC50 ([1]; source organism: Zaire ebolavirus)
